{
  "source": "paper PMC3877283",
  "about": "“Development of Novel Radiogallium-Labeled Bone Imaging Agents Using Oligo-Aspartic Acid Peptides as Carriers” (PLoS ONE, 2013)",
  "experiment": "Biodistribution experiments in normal mice",
  "type": "in vivo, ddY mice",
  "settings": "for F/B ratio (Femur:blood ratio) / tissue uptake dose at 1 h / tissue uptake dose at 3 h / tissue uptake dose at 10 min: male ddY mice, no pretreatment, mean (SD) for four or five animals; for tissue uptake dose at 1 h / tissue uptake dose at 3 h / tissue uptake dose at 10 min: mouse, in vivo, iv, 37 kBq/100 uL, total radioactivity",
  "description": "Experiments with animals were conducted in strict accordance with the Guidelines for the Care and Use of Laboratory Animals of Kanazawa University. The animal experimental protocols used were approved by the Committee on Animal Experimentation of Kanazawa University (Permit Number: AP-132633). Biodistribution experiments were performed after an intravenous administration of each diluted tracer solution (37 kBq/100 µL) to 6-week-old male ddY mice (27–32 g, Japan SLC, Inc., Hamamatsu, Japan). To investigate the effect of an excess amount of bisphosphonate on biodistribution, alendronate (20 mg/kg) was intravenously administered to mice 1 minute before the intravenous injection of ^67Ga-DOTA-(Asp)14 or ^67Ga-DOTA-Bn-SCN-HBP. Four to six mice each were sacrificed by decapitation at 10, 60, and 180 minutes post-injection. Tissues of interest were removed and weighed. Complete left femurs were isolated as representative bone samples, radioactivity was determined using an auto well gamma counter, and counts were corrected for background radiation and physical decay during counting.",
  "note": "Where two headings read alike, the source gives them in different places. Peptide text beside a SMILES is read from it. * marks the point of attachment. DOTA = O=C(O)CN1CCN(CC(=O)O)CCN(CC(=O)*)CCN(CC(=O)O)CC1",
  "data": [
    {"molecule": "O=C(O)C[C@H](NC(=O)[C@H](CC(=O)O)NC(=O)[C@H](CC(=O)O)NC(=O)[C@H](CC(=O)O)NC(=O)[C@H](CC(=O)O)NC(=O)[C@H](CC(=O)O)NC(=O)[C@H](CC(=O)O)NC(=O)[C@H](CC(=O)O)NC(=O)[C@H](CC(=O)O)NC(=O)[C@H](CC(=O)O)NC(=O)[C@H](CC(=O)O)NC(=O)CN1CCN(CC(=O)O)CCN(CC(=O)O)CCN(CC(=O)O)CC1)C(=O)O", "note": "[67Ga-DOTA-(Asp)11, metal not drawn] ({DOTA}-DDDDDDDDDDD-OH)", "values": [
      {"measurement": "F/B ratio (Femur:blood ratio)", "setting": "10 min after i.v. administration", "result": "8.71 (0.73)"},
      {"measurement": "F/B ratio (Femur:blood ratio)", "setting": "60 min after i.v. administration", "result": "156.07 (45.00)"},
      {"measurement": "F/B ratio (Femur:blood ratio)", "setting": "180 min after i.v. administration", "result": "501.32 (156.89)"},
      {"measurement": "tissue uptake dose at 1 h", "setting": "male, ddY, Blood, 60 min after i.v. administration, read-out: Radioactivity in Blood", "result": 0.11, "unit": "%ID"},
      {"measurement": "tissue uptake dose at 3 h", "setting": "male, ddY, Blood, 180 min after i.v. administration, read-out: Radioactivity in Blood", "result": 0.03, "unit": "%ID"},
      {"measurement": "tissue uptake dose at 10 min", "setting": "male, ddY, Bone (complete left femur), 10 min after i.v. administration, read-out: Radioactivity in Bone (Femur)", "result": 13.1, "unit": "%ID"},
      {"measurement": "tissue uptake dose at 1 h", "setting": "male, ddY, Bone (complete left femur), 60 min after i.v. administration, read-out: Radioactivity in Bone (Femur)", "result": 16.3, "unit": "%ID"},
      {"measurement": "tissue uptake dose at 3 h", "setting": "male, ddY, Bone (complete left femur), 180 min after i.v. administration, read-out: Radioactivity in Bone (Femur)", "result": 13.9, "unit": "%ID"},
      {"measurement": "tissue uptake dose at 10 min", "setting": "male, ddY, Brain, 10 min after i.v. administration, read-out: Radioactivity in Brain", "result": 0.05, "unit": "%ID"},
      {"measurement": "tissue uptake dose at 1 h", "setting": "male, ddY, Brain, 60 min after i.v. administration, read-out: Radioactivity in Brain", "result": 0.02, "unit": "%ID"},
      {"measurement": "tissue uptake dose at 3 h", "setting": "male, ddY, Brain, 180 min after i.v. administration, read-out: Radioactivity in Brain", "result": 0.01, "unit": "%ID"},
      {"measurement": "tissue uptake dose at 10 min", "setting": "male, ddY, Heart, 10 min after i.v. administration, read-out: Radioactivity in Heart", "result": 0.55, "unit": "%ID"},
      {"measurement": "tissue uptake dose at 1 h", "setting": "male, ddY, Heart, 60 min after i.v. administration, read-out: Radioactivity in Heart", "result": 0.08, "unit": "%ID"},
      {"measurement": "tissue uptake dose at 3 h", "setting": "male, ddY, Heart, 180 min after i.v. administration, read-out: Radioactivity in Heart", "result": 0.02, "unit": "%ID"},
      {"measurement": "tissue uptake dose at 10 min", "setting": "male, ddY, Kidney, 10 min after i.v. administration, read-out: Radioactivity in Kidney", "result": 16, "unit": "%ID"},
      {"measurement": "tissue uptake dose at 1 h", "setting": "male, ddY, Kidney, 60 min after i.v. administration, read-out: Radioactivity in Kidney", "result": 1.76, "unit": "%ID"},
      {"measurement": "tissue uptake dose at 3 h", "setting": "male, ddY, Kidney, 180 min after i.v. administration, read-out: Radioactivity in Kidney", "result": 0.8, "unit": "%ID"},
      {"measurement": "tissue uptake dose at 10 min", "setting": "male, ddY, Large-intestine, 10 min after i.v. administration, read-out: Radioactivity in Large-intestine", "result": 0.27, "unit": "%ID"},
      {"measurement": "tissue uptake dose at 1 h", "setting": "male, ddY, Large-intestine, 60 min after i.v. administration, read-out: Radioactivity in Large-intestine", "result": 0.06, "unit": "%ID"},
      {"measurement": "tissue uptake dose at 3 h", "setting": "male, ddY, Large-intestine, 180 min after i.v. administration, read-out: Radioactivity in Large-intestine", "result": 0.13, "unit": "%ID"},
      {"measurement": "tissue uptake dose at 10 min", "setting": "male, ddY, Liver, 10 min after i.v. administration, read-out: Radioactivity in Liver", "result": 0.44, "unit": "%ID"},
      {"measurement": "tissue uptake dose at 1 h", "setting": "male, ddY, Liver, 60 min after i.v. administration, read-out: Radioactivity in Liver", "result": 0.07, "unit": "%ID"},
      {"measurement": "tissue uptake dose at 3 h", "setting": "male, ddY, Liver, 180 min after i.v. administration, read-out: Radioactivity in Liver", "result": 0.05, "unit": "%ID"},
      {"measurement": "tissue uptake dose at 10 min", "setting": "male, ddY, Lung, 10 min after i.v. administration, read-out: Radioactivity in Lung", "result": 1.11, "unit": "%ID"},
      {"measurement": "tissue uptake dose at 1 h", "setting": "male, ddY, Lung, 60 min after i.v. administration, read-out: Radioactivity in Lung", "result": 0.12, "unit": "%ID"},
      {"measurement": "tissue uptake dose at 3 h", "setting": "male, ddY, Lung, 180 min after i.v. administration, read-out: Radioactivity in Lung", "result": 0.04, "unit": "%ID"},
      {"measurement": "tissue uptake dose at 10 min", "setting": "male, ddY, Muscle, 10 min after i.v. administration, read-out: Radioactivity in Muscle", "result": 0.48, "unit": "%ID"},
      {"measurement": "tissue uptake dose at 1 h", "setting": "male, ddY, Muscle, 60 min after i.v. administration, read-out: Radioactivity in Muscle", "result": 0.13, "unit": "%ID"},
      {"measurement": "tissue uptake dose at 3 h", "setting": "male, ddY, Muscle, 180 min after i.v. administration, read-out: Radioactivity in Muscle", "result": 0.08, "unit": "%ID"},
      {"measurement": "tissue uptake dose at 10 min", "setting": "male, ddY, Pancreas, 10 min after i.v. administration, read-out: Radioactivity in Pancreas", "result": 0.62, "unit": "%ID"},
      {"measurement": "tissue uptake dose at 1 h", "setting": "male, ddY, Pancreas, 60 min after i.v. administration, read-out: Radioactivity in Pancreas", "result": 0.07, "unit": "%ID"},
      {"measurement": "tissue uptake dose at 3 h", "setting": "male, ddY, Pancreas, 180 min after i.v. administration, read-out: Radioactivity in Pancreas", "result": 0.05, "unit": "%ID"},
      {"measurement": "tissue uptake dose at 10 min", "setting": "male, ddY, Small-intestine, 10 min after i.v. administration, read-out: Radioactivity in Small-intestine", "result": 0.41, "unit": "%ID"},
      {"measurement": "tissue uptake dose at 1 h", "setting": "male, ddY, Small-intestine, 60 min after i.v. administration, read-out: Radioactivity in Small-intestine", "result": 0.27, "unit": "%ID"},
      {"measurement": "tissue uptake dose at 3 h", "setting": "male, ddY, Small-intestine, 180 min after i.v. administration, read-out: Radioactivity in Small-intestine", "result": 0.05, "unit": "%ID"},
      {"measurement": "tissue uptake dose at 10 min", "setting": "male, ddY, Spleen, 10 min after i.v. administration, read-out: Radioactivity in Spleen", "result": 0.31, "unit": "%ID"},
      {"measurement": "tissue uptake dose at 1 h", "setting": "male, ddY, Spleen, 60 min after i.v. administration, read-out: Radioactivity in Spleen", "result": 0.09, "unit": "%ID"},
      {"measurement": "tissue uptake dose at 3 h", "setting": "male, ddY, Spleen, 180 min after i.v. administration, read-out: Radioactivity in Spleen", "result": 0.04, "unit": "%ID"},
      {"measurement": "tissue uptake dose at 10 min", "setting": "male, ddY, Stomach (footnote b), 10 min after i.v. administration, read-out: Radioactivity in Stomach", "result": 0.21, "unit": "%ID"},
      {"measurement": "tissue uptake dose at 1 h", "setting": "male, ddY, Stomach (footnote b), 60 min after i.v. administration, read-out: Radioactivity in Stomach", "result": 0.18, "unit": "%ID"},
      {"measurement": "tissue uptake dose at 3 h", "setting": "male, ddY, Stomach (footnote b), 180 min after i.v. administration, read-out: Radioactivity in Stomach", "result": 0.04, "unit": "%ID"},
      {"measurement": "tissue uptake dose at 10 min", "setting": "Blood, 10 min after i.v. administration (37 kBq/100 µL), gamma counter, read-out: Radioactivity in Blood", "result": 1.51, "unit": "%ID"},
      {"measurement": "accumulation of radioactivity in the femur (in words)", "setting": "normal mice, i.v.", "result": "higher accumulation"}
    ]}
  ]
}
